Data on 9 molecules can be found in patent publication US20240254227A1 (Alector, published 2024).

T1: murine CD300C-Fc (mouse)
T1 construct: mouse IgG2a-Fc fusion (R&D Systems); the entry is the whole fusion chain; also called mCD300C; Mouse CD300C-Fc
T1 chain: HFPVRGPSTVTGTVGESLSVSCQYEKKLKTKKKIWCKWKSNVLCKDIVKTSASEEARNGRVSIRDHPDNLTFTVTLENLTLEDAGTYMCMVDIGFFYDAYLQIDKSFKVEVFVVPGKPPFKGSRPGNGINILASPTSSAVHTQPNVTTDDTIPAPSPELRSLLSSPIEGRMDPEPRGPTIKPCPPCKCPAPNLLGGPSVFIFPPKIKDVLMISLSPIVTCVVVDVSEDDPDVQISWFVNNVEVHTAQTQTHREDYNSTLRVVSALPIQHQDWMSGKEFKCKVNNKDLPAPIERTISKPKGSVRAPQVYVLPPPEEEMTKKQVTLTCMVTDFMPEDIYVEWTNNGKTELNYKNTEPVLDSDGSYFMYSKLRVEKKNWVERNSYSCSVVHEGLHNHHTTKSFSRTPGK

T2: human CD300C-Fc (human)
T2 construct: hIgG1-Fc fusion; the entry is the whole fusion chain
T2 chain: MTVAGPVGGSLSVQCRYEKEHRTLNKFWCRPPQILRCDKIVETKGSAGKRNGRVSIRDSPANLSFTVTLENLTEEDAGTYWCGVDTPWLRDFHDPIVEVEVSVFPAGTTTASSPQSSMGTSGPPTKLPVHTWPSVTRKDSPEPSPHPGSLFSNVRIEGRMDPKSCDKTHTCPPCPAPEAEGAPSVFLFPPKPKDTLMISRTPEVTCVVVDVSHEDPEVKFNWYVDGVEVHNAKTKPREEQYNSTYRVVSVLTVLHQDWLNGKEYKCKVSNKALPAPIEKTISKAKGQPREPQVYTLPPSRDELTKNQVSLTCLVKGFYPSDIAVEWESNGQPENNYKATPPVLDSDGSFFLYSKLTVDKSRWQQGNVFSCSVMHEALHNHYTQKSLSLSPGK

T3: murine CD300F stably expressed on Jurkat cells (mouse, UniProt Q6SJQ7 20-337)
T3 construct: also called muCD300F
T3 sequence: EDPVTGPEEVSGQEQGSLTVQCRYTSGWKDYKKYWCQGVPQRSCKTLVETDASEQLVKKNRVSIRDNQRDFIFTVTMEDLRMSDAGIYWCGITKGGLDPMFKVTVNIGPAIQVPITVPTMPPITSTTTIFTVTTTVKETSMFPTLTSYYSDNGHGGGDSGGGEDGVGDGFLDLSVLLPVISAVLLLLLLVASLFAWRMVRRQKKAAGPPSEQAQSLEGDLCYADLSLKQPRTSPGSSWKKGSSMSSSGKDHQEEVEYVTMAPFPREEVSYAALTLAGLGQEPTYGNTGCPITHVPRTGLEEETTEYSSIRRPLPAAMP

B1: anti-CD300LB antibody CD-18 (antibody, V domains shown)
VH: DVQLQESGPDLVKPSQSLSLTCTVTGYSITSGYSWHWIRQFPDNKLEWMGYILSRGDTNFNPSLKSRISITRSTSNNQFFLHFNSVTTEDTATYYCARDFFDYWGQGTTLTVSS
VL: DVLMTQTPLSLPVSLGDQASISCRSSQSIVHSNGNTYLEWYLQKPGQSPKLLIYKVSDRFSGVPDRFSGSGSGTDFTLKISRVEAEDLGVYFCFQGSHVPYTFGGGTKLEIK
B2: anti-CD300LB antibody CD-12 (antibody, V domains shown)
VH: QIQLVQSGPELKKPGETVKISCKASGYTFTDYSMHWVRQAPGKGLKWMAWINTETGEATHADDFKGRFDFSLDTSASTAYLQIKNLKNEDTGIYFCVCYGSSYGMDYWGQGTSVTVSS
VL: DIVLTQSPASLPVSLGQRATISCRASKSVRTSGASYMHWYQQKPGQPPKLLIYLASNLKSGVPTRFSGSGSGTDFTLNIHPVEEEDAATYYCQHNREVPPTFGGGTKLEIK
B3: anti-CD300LB antibody CD-17 (antibody, V domains shown)
VH: QIQLVQSGPELKKPGETVKISCKASGYTLTDYSMHWVKQAPGKGLKWMGWINTETGEPRYGDDFKGRFAFSLETSASSAYLQINNLKNDDTATYFCATYGRSYGMDFWGQGTSVTVSS
VL: B2 VL with P12A, R30S, T31P, A34H, T64A, E85G, V98L, T106S
B4: anti-CD300LB antibody CD-01 (antibody, V domains shown)
VH: RVQLQQSGAELVRPGASVTLSCKASGFTFTDFEMHWVKKTPVHGLEWIGAIDPESGNTAYNQKFRGKATLTADKSSSTAYMELRYLTSEDSAVYYCTPLISGADYWGQGTTLTVSS
VL: DVVMTQSPLSLPVSLGDQASISCRSSQSLVHSDGNTYLYWYLQKPGQSPKLLIYKVSNRFSGVPDRFSGSGSGTDFTFKISRVGAEDLGVYFCSQSTHVPWTFGGGTKLEII
B5: anti-CD300LB antibody CD-05 (antibody, V domains shown)
VH: QVQLVQSGAEVKKPGASVKVSCKASGYTFSRYYINWVRQAPGQGLEWMGWINPNSGGTNYAQKFQGRVTMTRDTSTSTVYMELSSLRSEDTAVYYCTTDQLRFGKTGPYYGMDVWGQGTTVTVSS
VL: DIQMTQSPSSLSASVGDRVTITCRASQNIGTYLNWYQQKPGKAPKLLIYAASSLQSGVPSRFSGSGSGTDFTLTISSLQPEDFATYYCQQSYSDTLTFGGGTKVEIK
B6: anti-CD300LB antibody CD-02 (antibody, V domains shown)
VH: QVQLQQPGAELVRPGSSVKLSCQASGYTFTNYWMHWVRQRPIQGLEWIGNIDPSDSETHYNQKFKDRATLTVDKSSSTAYMQLSSLTSEDSAVYYCARSGVYDDEGGDYWGQGTTLTVSS
VL: ENVLTQSPAIMSASPGEKVTMTCSASSSVSYIHWYQQKSSTSPKLWIYDTSKLASGVPGRFSGSGSGNSYSLTISSMETEDVATYYCFQGSGYPLTFGAGTKLELK
B7: anti-CD300LB antibody CD-03 (antibody, V domains shown)
VH: EVQLQQSGPELVKPGASVKISCKASGYTFTDYYINWVRQSHGKSLECIGDINPNNGGTNYNQKFKGKATLTVDRSSNTAYMEFRSLTFDDSALYYCAAEGAYWGQGTLVTVSA
VL: not shown
B8: anti-CD300LB antibody CD-15 (antibody, V domains shown)
VH: QIQLVQSGPELKKPGETVKISCQVSGYTFTDYSMHWLKQAPGKGLKWMAWINTETGESTYTDEFKGRFVFSLETSVRTAYLKINNLKNEDTATYFCGTYGSSYGMAYWGQGTSVTVSS
VL: B2 VL with R30S, A34S, M37L, N57K, K59E, T64A, S67R
B9: anti-CD300LB antibody CD-11 (antibody, V domains shown)
VH: QIQLVQSGPEVKKPGETVKISCKASGYTLTDYSMHWVMQTPGTGLKWMAWMNTETGEPTYADDFKGRFAFSLETSAGTAYLQIDNLKNEDTATYFCATYGKSYGMKYWGQGTSVTVSS
VL: DIVLTQSPPSLAVSLGQRATISCRATKSVSPYLHWYQQTPGQPPKLLIYLASNLDSGVPARFSGSGSGTDFTLNIHPVEEEDAATYYCQHNKELPPTFGGGTRLEIK

Where a chain is given by its changes, count along the chain named.

In one experiment the target is T1, murine CD300C-Fc. Briefly: SPR (Carterra LSA), antibody immobilised. The essentials:
(§1)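 Mouse anti-CD300LB IgG1 antibodies were amine-coupled in a 96-spot array on an HC200M chip; Fc-fused CD300 ectodomains (human on hIgG1-Fc) flowed over as analytes at 300 nM or 600 nM in HBS-TE with 0.5 mg/ml BSA, injected in series without regeneration, with kinetics fitted by high-throughput analysis.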
For the molecule B1, the binding result is given as “no binding (tested: 300 nM or 600 nM)”.

B2: the binding result is listed as “no binding (tested: 300 nM or 600 nM)”.

In the case of B3, the binding result was “no binding (tested: 300 nM or 600 nM)”.

For a further experiment, the target named is T2, human CD300C-Fc. Nature of the experiment: SPR (Carterra LSA), antibody immobilised. The essentials:
as §1
For B4, the binding result was “no binding (tested: 300 nM or 600 nM)”.

In the case of B5, the binding result was “no binding (tested: 300 nM or 600 nM)”.

As to B6, the binding result is listed as “no binding (tested: 300 nM or 600 nM)”.

On to B7, for which the binding result is recorded as “no binding (tested: 300 nM or 600 nM)”.

In another experiment the target is T3, murine CD300F stably expressed on …. Nature of the experiment: flow cytometry, stable Jurkat cells, 10 ug/mL, isotype subtracted. As to the method:
Purified anti-CD300LB antibodies of the present disclosure were analyzed for cross-reactivity to other murine CD300 family members stably expressed in Jurkat cells (generation of which is described above). Cells were counted and labeled with 200 nM CFSE, 500 nM VioBlue, or a combination of the two to discriminate between muCD300LB, Parental cells, CD300F, and the other CD300 family members. Cells were washed thoroughly with PBS containing 2% fetal bovine serum then resuspended at a total of 240,000 cells per well. Purified antibodies at 10 μg/mL were added and incubated for one hour before the cells were washed twice again and stained with an APC-labeled anti-mouse secondary. Cells were then analyzed using a BD FACSCanto II. Antibodies were analyzed for specific binding to muCD300LB by FlowJo software by gating on live cells, then the APC gMFI calculated for each labeled population by subtracting the gMFI of the isotype control. The gMFI results of the analysis are presented below in Table 4.
Background: In flow cytometry, cells or beads pass a laser one at a time.
On to B1, for which the gMFI came out at 6.6 gMFI.

With B2, the gMFI was determined as 2.1 gMFI.

As to B3, the gMFI turned out to be 1.7 gMFI.

As to B8, the gMFI was 1.85 gMFI.

For B9, the gMFI was determined as 2.35 gMFI.
